Kd and koff data for two molecules are collected here from publication PMC2777315 (PLoS Pathogens, 2009).

Holding throughout (details): both partners purified
Assay [1] concerns the target T1, GST-IlsA fusion protein (IlsA, iron-regulated leucine-rich surface protein of Bacillus cereus ATCC 14579) (Bacillus cereus ATCC 14579, UniProt Q81G77 1-760).
T1 construct: also called IlsA-GST; purified IlsA; source: E. coli BL-21, purified (pellet solubilised in 8 M urea, dialysed, glutathione Sepharose 4B)
T1 sequence: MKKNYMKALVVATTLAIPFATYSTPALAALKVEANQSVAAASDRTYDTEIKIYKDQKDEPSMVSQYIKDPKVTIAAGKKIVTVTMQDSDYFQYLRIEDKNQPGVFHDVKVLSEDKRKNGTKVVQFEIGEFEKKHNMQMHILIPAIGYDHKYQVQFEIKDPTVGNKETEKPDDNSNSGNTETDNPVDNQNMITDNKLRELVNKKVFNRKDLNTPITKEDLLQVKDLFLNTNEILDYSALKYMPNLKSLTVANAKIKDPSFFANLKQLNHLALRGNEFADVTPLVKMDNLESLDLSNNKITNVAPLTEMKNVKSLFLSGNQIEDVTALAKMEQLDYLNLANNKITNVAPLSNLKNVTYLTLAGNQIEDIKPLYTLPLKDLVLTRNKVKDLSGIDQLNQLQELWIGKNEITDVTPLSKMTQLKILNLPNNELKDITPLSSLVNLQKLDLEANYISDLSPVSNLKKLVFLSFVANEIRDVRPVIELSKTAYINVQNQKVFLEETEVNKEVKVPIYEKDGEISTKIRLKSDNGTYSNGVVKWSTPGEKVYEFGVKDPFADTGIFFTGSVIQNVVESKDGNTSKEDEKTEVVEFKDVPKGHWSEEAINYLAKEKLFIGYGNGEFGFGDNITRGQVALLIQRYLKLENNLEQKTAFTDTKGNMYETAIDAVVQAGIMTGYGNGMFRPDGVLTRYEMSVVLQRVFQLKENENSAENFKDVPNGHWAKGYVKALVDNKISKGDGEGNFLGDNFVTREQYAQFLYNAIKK
Briefly: ELISA.

Assay [2] deals with T1, GST-IlsA fusion protein (IlsA, …). Briefly: SPR. A general note: Surface plasmon resonance follows binding to a sensor surface in real time, without labels.
For assay [3] the target is unchanged. Kind of assay: SPR; BIAcore 3000; GST-IlsA captured by anti-GST antibody on a CM5 chip; ligands injected at 200 nM for 8 min, dissociation 10 min; 0.1 M phosphate buffer pH 7.4; 20°C; data did not fit a 1:1 model, indicative koff from the dissociation phase only.
For assay [4] the target is unchanged. Briefly: ELISA; hemoglobin or ferritin coated on plates in increasing amounts (0-180 nM), 0.1 M phosphate buffer pH 7.4; IlsA added at 30 nM, 2 h at 37°C; detected with polyclonal anti-IlsA; Kd estimated with Origin.

B1: ferritin (complex)
chain 1: MSSQIRQNYSTEVEAAVNRLVNLYLRASYTYLSLGFYFDRDDVALEGVCHFFRELAEEKREGAERLLKMQNQRGGRALFQDLQKPSQDEWGTTLDAMKAAIVLEKSLNQALLDLHALGSAQADPHLCDFLESHFLDEEVKLIKKMGDHLTNIQRLVGSQAGLGEYLFERLTLKHD
chain 2: MTTAFPSQVRQNYHQDSEAAINRQINLELHASYVYLSMSFYFDRDDVALKNFAKYFLHQSHEEREHAEKLMKLQNQRGGRIFLQDIKKPDQDDWENGLKAMECALHLEKNVNESLLELHKLATDKNDPHLCDFLETHYLNEQVKAIKELGDHVTNLRRMGAPESGMAEYLFDKHTLGECDES
notes: source: bought: Sigma-Aldrich
A word on the Kd: it is the free concentration of one partner at which half of the binding sites on the other are occupied at equilibrium, for simple one-to-one binding. Broadly, the koff is the rate constant with which the complex falls apart. A low value points to slow dissociation. Take B1: binding in assay [1] was put at a Kd of 10 ± 3 nM. Also, in assay [2], the koff came to 0.00171 s⁻¹.

B2: hemoglobin (complex)
chain 1: not shown
chain 2: not shown
For the molecule B2, the koff in assay [3] is 0.00148 s⁻¹. Besides, the Kd in assay [4] is 3 ± 1 nM.
